Experimental data reported in patent US20170174789A1 (Regeneron, published 2017).

T1: mAng3 (mouse, UniProt Q9WVH6 22-509, limits assumed)
T1 construct: Bought protein; also called angiopoietin 3
T1 sequence (looked up): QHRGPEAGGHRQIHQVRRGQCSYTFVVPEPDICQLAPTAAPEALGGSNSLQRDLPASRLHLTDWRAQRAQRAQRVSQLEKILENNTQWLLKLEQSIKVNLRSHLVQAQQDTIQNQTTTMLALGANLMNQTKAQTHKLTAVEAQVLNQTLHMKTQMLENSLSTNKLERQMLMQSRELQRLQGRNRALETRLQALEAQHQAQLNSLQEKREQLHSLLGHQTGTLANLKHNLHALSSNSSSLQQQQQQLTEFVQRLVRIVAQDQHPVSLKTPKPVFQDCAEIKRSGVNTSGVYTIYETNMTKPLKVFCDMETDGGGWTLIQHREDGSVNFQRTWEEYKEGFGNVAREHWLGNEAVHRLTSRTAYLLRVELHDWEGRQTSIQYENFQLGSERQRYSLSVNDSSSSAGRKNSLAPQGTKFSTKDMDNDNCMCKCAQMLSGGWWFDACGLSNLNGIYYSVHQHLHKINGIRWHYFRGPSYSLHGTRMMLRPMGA

T2: hAng4 (human, UniProt Q9Y264 25-503, limits assumed)
T2 construct: Bought protein; also called angiopoietin 4
T2 sequence (looked up): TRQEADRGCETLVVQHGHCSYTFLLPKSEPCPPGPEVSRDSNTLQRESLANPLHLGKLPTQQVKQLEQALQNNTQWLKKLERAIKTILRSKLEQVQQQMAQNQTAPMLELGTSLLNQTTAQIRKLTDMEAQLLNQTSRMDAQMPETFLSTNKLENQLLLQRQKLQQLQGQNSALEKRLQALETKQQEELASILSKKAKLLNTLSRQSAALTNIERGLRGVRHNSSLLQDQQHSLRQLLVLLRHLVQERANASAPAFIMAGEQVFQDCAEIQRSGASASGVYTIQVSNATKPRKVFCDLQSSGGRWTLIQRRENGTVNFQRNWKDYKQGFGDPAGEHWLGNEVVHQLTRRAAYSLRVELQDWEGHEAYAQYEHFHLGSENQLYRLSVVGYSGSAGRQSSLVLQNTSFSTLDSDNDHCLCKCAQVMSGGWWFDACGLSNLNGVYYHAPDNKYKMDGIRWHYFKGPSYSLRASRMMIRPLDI

T3: hAng2 (human, UniProt O15123 19-496, limits assumed)
T3 construct: Bought protein; also called angiopoietin 2
T3 sequence (looked up): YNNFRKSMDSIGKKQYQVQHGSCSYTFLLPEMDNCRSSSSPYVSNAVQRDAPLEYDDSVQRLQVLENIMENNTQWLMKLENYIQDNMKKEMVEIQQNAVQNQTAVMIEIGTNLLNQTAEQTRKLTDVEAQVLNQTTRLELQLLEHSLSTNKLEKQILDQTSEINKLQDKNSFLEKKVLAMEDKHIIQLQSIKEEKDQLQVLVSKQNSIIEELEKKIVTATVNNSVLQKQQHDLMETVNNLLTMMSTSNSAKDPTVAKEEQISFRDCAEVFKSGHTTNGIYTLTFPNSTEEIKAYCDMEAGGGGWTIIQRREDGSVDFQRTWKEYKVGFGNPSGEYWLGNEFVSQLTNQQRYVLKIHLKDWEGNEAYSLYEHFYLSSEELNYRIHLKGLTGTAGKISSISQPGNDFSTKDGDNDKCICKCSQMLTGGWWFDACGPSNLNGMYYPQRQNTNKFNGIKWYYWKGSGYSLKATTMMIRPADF

B1: H1H2332B (antibody, V domains shown)
VH: QVQLQESGPGLVKPSETLSLTCTVSGASISSYYWTWFRQPPGQGLEWIGYIYYSGSTNYNPSLKSRVTISVDTSMNQFSLKLTSVTAADTAVYYCARQGGYTSSLFDYWGQGTLVTVSS
VL: DIQMTQSPSSLSASVGDRVTITCRASQSISSYLNWYQQKPGKAPKLLIYVVSSLQSGVPSRFSGSGSGTDFTLTISSLQPEDFATYYCQQSYSIPWTFGQGTKVEIK
notes: Tested as H1H2332B (human IgG format, H1H prefix)
B2: hTie2-mFc (Fc fusion)
chain: AMDLILINSLPLVSDAETSLTCIASGWRPHEPITIGRDFEALMNQHQDPLEVTQDVTREWAKKVVWKREKASKINGAYFCEGRVRGEAIRIRTMKMRQQASFLPATLTMTVDKGDNVNISFKKVLIKEEDAVIYKNGSFIHSVPRHEVPDILEVHLPHAQPQDAGVYSARYIGGNLFTSAFTRLIVRRCEAQKWGPECNHLCTACMNNGVCHEDTGECICPPGFMGRTCEKACELHTFGRTCKERCSGQEGCKSYVFCLPDPYGCSCATGWKGLQCNEACHPGFYGPDCKLRCSCNNGEMCDRFQGCLCSPGWQGLQCEREGIPRMTPKIVDLPDHIEVNSGKFNPICKASGWPLPTNEEMTLVKPDGTVLHPKDFNHTDHFSVAIFTIHRILPPDSGVWVCSVNTVAGMVEKPFNISVKVLPKPLNAPNVIDTGHNFAVINISSEPYFGDGPIKSKKLLYKPVNHYEAWQHIQVTNEIVTLNYLEPRTEYELCVQLVRRGEGGEGHPGPVRRFTTASIGLPPPRGLNLLPKSQTTLNLTWQPIFPSSEDDFYVEVERRSVQKSDQQNIKVPGNLTSVLLNNLHPREQYVVRARVNTKAQGEWSEDLTAWTLSDILPPQPENIKISNITHSSAVISWTILDGYSISSITIRYKVQGKNEDQHVDVKIKNATIIQYQLKGLEPETAYQVDIFAENNIGSSNPAFSHELVTLPESQAPADLGGGKGPGEPRGPTIKPCPPCKCPAPNLLGGPSVFIFPPKIKDVLMISLSPIVTCVVVDVSEDDPDVQISWFVNNVEVHTAQTQTHREDYNSTLRVVSALPIQHQDWMSGKEFKCKVNNKDLPAPIERTISKPKGSVRAPQVYVLPPPEEEMTKKQVTLTCMVTDFMPEDIYVEWTNNGKTELNYKNTEPVLDSDGSYFMYSKLRVEKKNWVERNSYSCSVVHEGLHNHHTTKSFSRTPGK

Key:
[1] = target: T4, mTie2-hFc (mouse); assay: SPR Biacore 25C, mAb captured
T4 construct: also called mouse Tie2
Experimental: (§1) (Tables 3-6). Measurements were conducted on a Biacore 2000 or T200 instrument.
(§2) For antibodies with a mouse constant region (designated H1M or H2M), antibodies were immobilized onto an anti-mouse Fc sensor surface and different concentrations of human, mouse or rat Tie2 constructs (hTie2-His, mTie2-hFc and rTie2-hFc) were injected over the antibody captured surface. For antibodies in the human IgG format (designated H1H or H4H), either an anti-human Fc sensor surface (hTie2-His and hTie2-mFc) or anti-human Fab sensor surface (mTie2-hFc and rTie2-hFc) was employed depending on the Tie-2 construct applied to the antibody captured surface. Amino acid sequences of the constructs used in this Example are as follows: hTie2-His (SEQ ID NO:2); hTie2-hFc (SEQ ID NO:3); hTie2-mFc (SEQ ID NO:4); rTie2-hFc (SEQ ID NO:5); and mTie2-hFc (SEQ ID NO:6).
(§3) Kinetic rate constants—association rate (ka) and dissociation rate (kd) were determined by fitting the real time binding sensorgrams to a 1:1 binding model with mass transport limitation using Scrubber 2.0 curve fitting software. The equilibrium dissociation constant (KD) and dissociative half-life (T½) were calculated from the kinetic rate constants as: KD (M)=kd/ka; and T½ (min)=(In2/(60*kd).).

[2] = target: T5, rTie2-hFc (rat); assay: SPR Biacore 25C, mAb captured
T5 construct: also called rat Tie2
T5 sequence (chain, as listed by the source limits assumed): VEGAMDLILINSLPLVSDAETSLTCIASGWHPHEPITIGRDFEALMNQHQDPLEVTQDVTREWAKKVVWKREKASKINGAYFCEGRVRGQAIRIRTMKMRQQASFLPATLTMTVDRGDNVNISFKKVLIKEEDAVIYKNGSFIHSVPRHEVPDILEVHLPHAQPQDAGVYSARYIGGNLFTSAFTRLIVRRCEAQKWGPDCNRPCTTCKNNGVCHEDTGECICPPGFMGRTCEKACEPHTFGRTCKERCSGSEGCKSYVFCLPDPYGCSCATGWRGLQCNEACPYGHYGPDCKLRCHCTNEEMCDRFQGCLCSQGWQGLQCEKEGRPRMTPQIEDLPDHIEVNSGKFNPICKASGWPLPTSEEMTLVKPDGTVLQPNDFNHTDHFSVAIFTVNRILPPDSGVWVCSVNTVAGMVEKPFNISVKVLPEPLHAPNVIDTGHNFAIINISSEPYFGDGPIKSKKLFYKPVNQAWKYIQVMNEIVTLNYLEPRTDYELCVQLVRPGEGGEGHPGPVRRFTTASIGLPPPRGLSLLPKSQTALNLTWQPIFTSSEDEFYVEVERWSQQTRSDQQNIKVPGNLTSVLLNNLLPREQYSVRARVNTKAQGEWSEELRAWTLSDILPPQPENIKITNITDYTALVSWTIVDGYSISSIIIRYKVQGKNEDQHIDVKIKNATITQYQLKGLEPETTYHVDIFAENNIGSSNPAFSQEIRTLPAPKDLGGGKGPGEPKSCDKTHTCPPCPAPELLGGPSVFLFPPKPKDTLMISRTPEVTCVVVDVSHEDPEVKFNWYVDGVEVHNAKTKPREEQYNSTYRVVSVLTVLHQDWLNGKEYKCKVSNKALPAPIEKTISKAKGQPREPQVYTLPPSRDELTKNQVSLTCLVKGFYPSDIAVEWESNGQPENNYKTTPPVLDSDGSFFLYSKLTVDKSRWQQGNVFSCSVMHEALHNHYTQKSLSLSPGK
Experimental: as §1, §2, §3

[3] = target: T6, hTie2 (EGF) (human, UniProt Q02763 210-344); assay: Luminex bead binding
T6 construct: Domain-deletion construct linked to Luminex beads
T6 sequence (Q02763 other isoform, or with tags, fused parts or gaps limits assumed): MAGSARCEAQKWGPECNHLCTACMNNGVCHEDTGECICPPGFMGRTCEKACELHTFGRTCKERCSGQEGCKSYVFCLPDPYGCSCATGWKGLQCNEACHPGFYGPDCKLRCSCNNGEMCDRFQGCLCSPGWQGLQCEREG
Experimental: (§4) For binding, 25 μl of anti-Tie2 antibody (25 μg/ml) was added to 75 μl of the above created Luminex bead mixture (3×10³ beads per construct) in binding buffer (PBS, 0.05% Tween 20, 1 mg/ml BSA, 0.05% sodium azide) into a 96 well filter plate (Millipore). Incubation was at room temperature (RT) for 90 min or overnight at 4° C. with shaking. The beads were washed 3× with washing buffer (PBS+0.05% Tween 20) resuspended in 100 μl binding buffer containing PE (phycoerythrine)-labeled anti human kappa or PE-labeled anti mouse Fab secondary antibody and incubated at RT for 45 min with shaking. Samples were washed 2× more and binding signal (MFI) for each bead was determined using a Luminex L200 or FLEXMAP3D instrument. Bead linked human Tie2 was used as positive control and bead linked human Tie1 was used to measure family cross-reactivity. In general MFI signals greater than 500 units represent significant binding.

[4] = target: T7, hTie2 (Ig2-EGF) (human, UniProt Q02763 121-344); assay: Luminex bead binding
T7 construct: Domain-deletion construct linked to Luminex beads
T7 sequence (Q02763 other isoform, or with tags, fused parts or gaps limits assumed): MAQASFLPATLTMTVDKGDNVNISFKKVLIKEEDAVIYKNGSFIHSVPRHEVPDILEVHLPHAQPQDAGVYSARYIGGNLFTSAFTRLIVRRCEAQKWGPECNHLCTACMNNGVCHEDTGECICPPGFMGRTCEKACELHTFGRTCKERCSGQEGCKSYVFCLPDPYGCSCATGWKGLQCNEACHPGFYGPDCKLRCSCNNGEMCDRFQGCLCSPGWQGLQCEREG
Experimental: as §4

[5] = target: T8, hTie2 (Ig1-Ig2-EGF) (human, UniProt Q02763 24-344); assay: Luminex bead binding
T8 construct: Domain-deletion construct; also used for H/D exchange
Experimental: as §4

[6] = target: hTie2 on 293-Tie2/SRE-Luc cells (human, UniProt Q02763 23-1124); assay: cell-based or functional assay
[7] = target: T1, mAng3; assay: Octet Red biosensor, hTie2.mFc captured on anti-mFc tips, 100 nM angiopoietin for 5 min; some tips first saturated with 300 nM H4H2055N or Control I
Experimental: (§5) A further set of experiments was conducted to evaluate the ability of H4H2055N to block Tie2 binding to Ang2 and other members of the angiopoietin family (Ang1, Ang3 and Ang4). In this set of experiments, an Octet Red biosensor was employed using two experimental formats. In the first format, hTie2.mFc (SEQ ID NO:4; 10 μg/ml) or a negative control was captured on anti-mFc Octet sensor tips for 5 min. The captured sensor tip surfaces were then saturated with H4H2055N or Control I antibody by dipping into wells containing 300 nM of respective monoclonal antibodies for 10 min. Finally the sensor tips were placed into wells containing 100 nM of hAng1 (R&D Systems, Inc., Minneapolis, Minn., Cat 923-AN/CF; Accession #Q5HYA0), hAng2 (R&D Systems, Inc., Minneapolis, Minn., Cat 623-AN/CF; Accession #015123), mAng3 (R&D Systems, Inc., Minneapolis, Minn., Cat 738-AN/CF; Accession #Q9WVH6) or hAng4 (R&D Systems, Inc., Minneapolis, Minn., Cat 964-AN/CF; Accession Q9Y264) for 5 min. Binding response at each step of the experiment was monitored and the binding of different angiopoietins to the monoclonal antibody saturated receptor surfaces was plotted (FIG. 2). As illustrated by FIG. 2, H4H2055N blocked the binding of all four angiopoietins to the hTie2.mFc surface.

[8] = target: T2, hAng4; assay: as above
Experimental: as §5

[9] = target: T3, hAng2; assay: as above
Experimental: as §5

Binder | Kd [1] [nM] | T½ [1] [min] | koff [1] [s⁻¹] | kon [1] [M⁻¹ s⁻¹] | Kd [2] [nM] | T½ [2] [min] | koff [2] [s⁻¹] | kon [2] [M⁻¹ s⁻¹] | binding result [3] | binding result [4] | binding result [5] | EC50, Tie2 dependent luciferase activity, 293-Tie2/SRE-Luc cells with 1 nM BowAng1 [6] [nM] | EC50, Tie2 dependent luciferase activity, 293-Tie2/SRE-Luc cells with 1 nM BowAng2 [6] [nM] | binding result [7] | binding result [8] | binding result [9]
B1 | 107 | 2 | 0.00576 | 53900 | 55.3 | 2 | 0.00618 | 112000 | no binding (tested: MFI >500 = significant binding) | no binding (tested: MFI >500 = significant binding) | no binding (tested: MFI >500 = significant binding) | 2.5 | 3.7 | – | – | –
B2 | – | – | – | – | – | – | – | – | – | – | – | – | – | binds | binds | binds
